Key:
[1] = target: GST-EFCAB9^Mut2 (D72N/E160Q) (mouse, UniProt Q9DAM2 1-216, D72N | E160Q); assay: pull-down
[2] = target: full-length GST-EFCAB9 (mouse) (mouse, UniProt Q9DAM2 1-216); assay: pull-down
full-length GST-EFCAB9 (mouse), sequence (Q9DAM2 whole entry): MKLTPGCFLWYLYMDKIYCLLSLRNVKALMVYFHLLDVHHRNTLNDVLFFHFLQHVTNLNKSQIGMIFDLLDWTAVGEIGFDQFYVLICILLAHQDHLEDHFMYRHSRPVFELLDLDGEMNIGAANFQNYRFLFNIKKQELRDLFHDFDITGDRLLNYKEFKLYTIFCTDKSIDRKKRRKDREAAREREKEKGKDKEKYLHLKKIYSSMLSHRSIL

GST-EFCAB9^Mut2 (D72N/E160Q), sequence (Q9DAM2 whole entry D72N/E160Q): as the sequence (Q9DAM2 whole entry) above, with D72N, E160Q counted along it

binding result [1]: binds | binding result [2]: binds
B1: 6xHis-tagged mouse CatSperζ fused to GB1 (natural protein)
chain: MEESVKPVPKHANHRRSSVRSSLYGDVRDLWSTATMSTANVSVSDVCEDFDEEGKSVRNRIRKYSQTISIRDSLNLEPEEIQQQARRELELCHGRSLEHGEDHEESETSLASSTSESLIFSLWKPHRTYWTEQQNRLPLPLMELMETEVLDILKKALITYRSTIGRNHFMTKELQGYIEGIRKRRNKRLYFLDQ
